The source of these data is a protein production outcome set (Wang et al. 2014).

This series is described as follows: label from the status in PepcDB records.
With “MIMLNKQGITISLCMIVRDEEETIARCLETVEKIVDEIIVVDTGSVDRTKEIVEKYTSNIYDFQWIDDFAAARNFSFSKATQEYILWLDADDVLLEDAQEALKLLKRELDPKIDAVSMPYHLAMDSNGKPLYCTKRNRLVKREKQFQWFGKVHEYLAISGEVFSSNVAITHKKEKKVTNRNLKIFQNTVAAGEELSPRDLFYYANESTDNQKYDDAVLLYETFLNQDEGWYEEKIYACGKLGDCYAKLGMWEKAIESCVKSFRYDVPRGENCTRIGYIYMEQEKYNEAIFWFKLATEVPMATESPFHSPASYTWLPYLQMCICYSRLGEQDKAYYYNELAASYVPNNAAIEYNRKYFRGVFDKPYKV”, the protein production entry is “failed”.
To “MLRFKRKNFFKTINFKIALVFALLLLITLEIVGAIFVKQLESKNIQDFKQSVQIPTYIDNSLSEQLTVSSTRKANGQIKTILSNYNNTNVDEIQVVDSKGTIRGTSDVNDQSVVGQKTTDRNVKNAIYNNRTYTKSTYDTQNNGRYYVSIVPLYSSNSAGNSSQLVGVLYVRANMKSVYSTINNIMGIFVIASLAAMVLGLGIAIIIARAITRPIEEMKQQTQRIARGDYAGQVRVYSDDELGQLAKAINNLSIRVEESQESTEAERRRLDSVLSHMSDGVIATDRRGNITIINETASDFMDVTAEKAIGNSILDILKIRDDYSLRDLIENQDELMLDFSSNERDLILNAYFSLIQRESGFISGLVCVLHDVTEQQKIDNDRKQFVSNVSHELRTPLTSLRSYIEALSDGAWKDPEVAPGFLKVTQEETDRMIRMINELLSLSRMDSGTTRVDMELVNINEMFNYVLDRFDMILKKDDNPAKYYTIKREFTKRDLWVEIDTDKFTQVLDNIMNNAIKYSPDGGVVTCRLLETHNQVIISISDQGLGIPRADLGHVFDRFFRVDKARSRAQGGTGLGLAISKEVVQMLGGRIWVDSVEGKGSTFYISLPYEPYEEEDLWDDDSQA” belongs “failed”; to “LEVLVKTLDSQTRTFIVGAQMNVKEFKEHIAASVSIPSEKQRLIYQGRVLQDDKKLQEYNVGGKVIHLVERAP”, “not failed”.
As for “MITSTNKEAYPNTLIVILGHDEGRSSFEEKEDVTRVTNDKGETIGFNFFNVDKLIDFDKLPNGPVKLSDDELEALNKKLAEVGFDDKLEYGKPTLVYGYVKTCEKHPDSDHLHVTTIEVGDGEEHQIVCGAPNIAQGQKVVVALPGTLMPNGAQIWPGKLRGVDSYGMICSARELGLPHAPQKRGIMVVPDSFEVGAEFEPTKCDELIASGEITLLEHHHHHH”, the protein production entry is on record as “not failed”.
In the case of “MADSLAGIDQVTSLHKNNELQLLCFRLGKNKDLYAVNVFKIREVVKYHGNLTIISHENNSLVEGLIIIRELTIPLIDMKKWFYYDSQNKNKDLRPYRIEKEKGEDDIVMICEFSRWTIGVRIYEADRILSKKWTEMEQSAGLGGSAGNNKLVSRTRYFDGRLVQVVDIEKMLIDVFPWIEDEKHNDLETLSKIHSNQCVLLADDSPSVLKTMQMILDKLGVKHIDFINGKTLLEHLFNPTTDVSNIGLIITDLEMPEASGFEVIKQVKNNPLTSKIPIVVNSSMSGSSNEDMARSLKADDFISKSNPKDIQRVVKQFLELA” it was “failed”; in that of “LTAIEARVIGCLIEKEVTTPDQYPLSLNALTNASNQKSNREPVMALSESDVLDAVDALIERRLVSDESAFNSRVSKYQHRFCNTEFGDLKLSEQEKGIICCMLLRGAQTPGEIRTRTNRLATFHDVKEVEAVLEHLASEEKGPLVVKLPREAGKRESRYMHLFCGEVDVSAMAAAVPAT”, “failed”.
As for “SAVLVALSLAGLPTDRFFFDGFLPSKQGARRARLGELAAIDATLVLFEAGSRIQNSVHDLADLLGATREAAICRELTKLHQEVRRATLAELAAQADTMETRGEFVVVIAP”, the protein production entry is “failed”.
To “MGKEITENIIDVEFKCNHFKMNGYIGNNNIYRSNKNLQHIYINKRFVKSKIIIDAITESYKSIIPIGKHAVCFLNIEVDPSCIDVNIHPNKLEIKFEKEQEVYIELRDFLKVKLIHSNLIGLEHHHHHH” belongs “failed”; to “MTGAVVVDIPLRWSDMDAQGHVNNVRISELVQESRNQAFYTNGAQEMLDTGIVVVSQDVEFLAPFVVDGSPLRVAVGCSQLGAARTVLDYRAWHHDVEVARARGTICPFDFATGRPRRLTDGERGAFESMKVESQQWKPIKVVDVSEAGDFIEVPIRWSDVDRQGHVNNVSLAGYLQEARILATTSWSPGMRRAGNYLWVVVRQDIRYRRQVLPTQRSCRVHTALTRLGTSSMTLAGSIATEEGSALDAATVLVCVDPKTGASVPIDDQTRQALSAYLVTV”, “failed”.
“MSLSNVFYRSSKPYPVAVRGEGVFLYDDAGRRYLDGSSGALVANIGHGRAEVGERMAAQAARLPFVHGSQFSSDVLEEYAGRLARFVGLPTFRFWAVSGGSEATESAVKLARQYHVERGEPGRFKVITRVPSYHGASLGSLAASGMGARRELYTPLMRPEAWPKLPKPDPARNGAEDAEGLRALLEREGPETVAAFMAEPVVGASDAALAPAPGYYERVRDICDEAGIIFIADEVMSGMGRCGSPLALSRWSGVTPDIAVLGKGLAAGYAPLAGLLAAPQVYETVMGGSGAFMHGFTYAGHPVSVAAGLSVLDIVEREDLTGAAKERGAQLLAGLQALQARFPQMMQVRGTGLLLGVVLGDLATGQAFETPGIASRIGAAALKRGLITYPGSGAEPNGRGDHLLLGPPLSITAAEVDGLLALLAGALEDVLGEGHHHHHH”: the protein production entry is “not failed”.
In the case of “MFLGELTERPVSLYAAAVLRIGYGLLYLAFLLREFPHRDEIWGPGSPWTPELARQLFDQTGWVSILTLSDGRAYFEACYALALVTCALFLLGWRTRAVSVLFAVVVASFHARAIFMTDGGDNLVLLMAVYLVFTACGRRWSLDARRTRLRAGASPAASPPARQEADGFRRQLGASRRTLTAVLHNCGMFVIAAQVCFLYGSAGLYKVQGGSWGNGTALHYVLNLDLFRPWPELSLLTDEHDVLMAIACYLTVLLQVAFPFVLFGRLKYPVLTVLLGMHLGIAVLLGLPLFSGAMIVADAVFLPDRCYLLLGRLWRRAGRRTGSTEAGAPARGESAFLPPQSAVSSPRTAAAPVRGRRA” it was “failed”.
Turning to “MTEQFVIIILLIALGYFLKRMNYLKATDSQVLSTLVLNVTLPSLVIVNLNSAKLDVSFSILPIMMIIYGIVAKIIVIWFFRKYDNHMRGSVGMMTGSMNIGLFAYPLVEAIWPSKGMIYFGMVDIGGAIIMFGITYFVGSYFSEGSDQFNFKFLGKKLVQSVPLVTYMIMFGLNMSHIHIWQPAIDFFSVLSKANMPLSMILLGVMLNFSIEREYLPVTIKYLCLHYGLGMLAGTLVHFLLPVSDDMIKTTLLITWLLPVGVAIIPYSIQFKYKTLPFVGMVTNLTIIISIIILYIYQAVFV”, the protein production entry is recorded as “failed”.
To “MLRIYAPASSANISVGFDTLGAAISPIDGSLLGDVVQIESISTGFELESAGYFVRKLPKEPQKNIVYQAYVLFSEQLKLRGANVKPLRLTLEKNMPIGSGLGSSACSIVAALVALNQFHNEPFSKMELLEMMGELEGRISGSIHYDNVAPCYLGGVQFMVQS” belongs “failed”; to “MMSPRIGLTLQKIVETAAEIADANGVQEVTLASLAQTLGVRSPSLYNHVKGLQDVRKNLGIYGIKKLHNRLEEAAEDKRMDEAIHALGEAYVAFVRKHPGLYEATFLRDEEVRKAGDGIVKLCLQVLQQYGLEGENALHATRGFRSICHGFASIEQQGGFGLPLDLDISLHVLLETFIKGLRE”, “not failed”.
Turning to “MTTKLDQLTSWLKERKITEVECLISDLTGIARGKISPTNKFIAEKGMRLPESVLLQTVTGDYVEDDIYYDLLDPADIDMVCRPDENAVFLVPWAIEPTAMVIHDTFDKLGNPIELSPRNILKRVLKMYADKGWRPIVAPEMEFYLTKRSDDPDYPLQAPVGRSGRQETGRQSFSIDAANEFDPLFEDMYDWCEAQGLDLDTLIHEEGTAQMEINFRHGDALDLADQILVFKRTMREAALKHNVAATFMAKPMTGEPGSAMHLHQSIVDVKTGKNIFSNADGTMSELFLHHIGGLQKFIPEVLPLFAPNVNSFRRFLPDTSAPVNVEWGEENRTVGLRVPDSSPENRRVENRLAGADANPYLALAASLLCGYIGMVEGIKPSAQVKGRGYERRNLRLPLTIEAALERMENCKPLEQYLGSKFISGYVAVKRAEHENFKRVISSWEREFLLLS”, the protein production entry is “failed”.
On to “MKTRLMEAWKAHRSVMVQMPTGTGKTHLLASVVSEFVSSAGSGVWLIAHRRELVAQMEETLAKYGIRREDTPVRVMSVQWLSRHWNEAGDAPGLIVIDEAHHALAASYTEMWKRYPAAKKLGVTATPCRLNRRGFTELFEVLVTSWSIAEFIEKGVLSVFDYVSIRPGSEERRLIDGLEKRGADGDYQVKEMDAVLNRRPGIERLYRSVRQFASGKKGMVYAISIEHARRIAEYYSRRGVNAVAVDSKTPAMERKRMVEEFRHGKIEVLVNVDVFSEGFDCPDVEFVQLARPTLSLAKYLQQVGRGLRRSEGKEACMLIDNVGLYRIFGLPTQRWNWDAMFRGRMAGKGSLPGRMNCDASVTAFPVVERPAEAGGDLVVVMEHGRLLSSIREQALPDEKEQSPSCRLRAFVDKETGLWGLEKGDEMLPDASFKEVLSIKGRFAVGRLRNGCVRVLDDTGALVAEPGHCREVRFLKDDLLQVRHAGNSVSYVDLRNGRCYSVRPRVLRYGSIELLQANRTYYSRTRQVYANTCGLPSSSIVWMGFYVKMYDGRVPSRCRRMEDGGFCCEPQVCLLEGDEERAYYLSGRLPDQSIVVMDEEGRYYHVEKGHGKRYVACLEHHHHHH”, for which the protein production entry is listed as “failed”.
To “MGRRPSSSHKVSSGKISARPSLHCERGGFMRKTFLAPLTVALCALAAAQTPPPAPIDRPLPAPEPPATATVTRNEPTPQQFTPDKLARLKVPAGFKVSVMATELGNARMLHVMPDGGIYLSRRQNGDIWYLKDVNGDGTIDATERRRVADQLKLVHGIDTRQGKLYAVGEKTIWVMDIARDGTLSVPRVFADNFPDAGQHPARQLGWGPDGYLYASFGATNNDAPTQNPEEATILRIRPDGQVREVYARGLRHTIGFGWHPVTKTFYGMDQGSDWHGDNIPPEELNVIKRGKNYGWPFCYGAKNPDPFVNVANIPGKITKAEYCATTEPSTLNYTAHAAAIALKFYTGTQFPAEFRNDAFVTFRGSWNRNEPSGYEVARVVFDAQNKPEKIEPFVTGFVYQEGGEWKQFGRVAGLAVYTDGSLLFTDDQSGVIYRVQYVGGQK” belongs “failed”; to “MAKQIIVTDSTSDLSHEYLKQHNIHVIPLSLTIDGKSYTDQVDISSSEYIDHIENDADVKTSQPPIGRFIETYEQLAQDDVEIISIHLSSGLSGTYNTAVQASHMVDGNITVIDSKSISFGLGYQIKQIVELISQGTSTEEIVKEMTQLRDNLQLFVVIGQLNQLIKGGRISKTKGLIGNIMKIKPIGTLRDGKLELVHNSRTQNSSVQYLKKEITDFVKDHKIKSIGIAHANVKDFVDKIIKSFTESFDFSQFDINVTTPVISTHTGQGAIGLVVLRDTLN”, “failed”; to “MGRGRKHTDAAAEQRELAIKANIVDEPFSVSAIDRSIRKAEWVKTETDQILSGRCPETDGTWLGISTRGRVAFLVEAGTINRDRFNGAESRTLEFLESNESPEDFAKSSAADYIRNKNTAAFHLIVADIASNSMLYISKPRFSDYGIVYTEPVGPGVHTLSSAGLDSDVGYRDLRMRHSFCEMINRERLPPIRDIAEIMYDPVKAYESVLLSSIFFVDMKIGYEHYGTRITTALVVKRTKEVLFFERYREIFNDDWDDHDFAFTII”, “failed”.
